Measurements taken from US20130344073A1 (OMEROS, published 2013).

Target: T1, human MASP-3 (human)
T1 construct: For selection and FACS it was full-length or a fragment, fused to an Fc domain or labelled with Dylight; also called MASP-3 antigen; rMASP-3
T1 chain: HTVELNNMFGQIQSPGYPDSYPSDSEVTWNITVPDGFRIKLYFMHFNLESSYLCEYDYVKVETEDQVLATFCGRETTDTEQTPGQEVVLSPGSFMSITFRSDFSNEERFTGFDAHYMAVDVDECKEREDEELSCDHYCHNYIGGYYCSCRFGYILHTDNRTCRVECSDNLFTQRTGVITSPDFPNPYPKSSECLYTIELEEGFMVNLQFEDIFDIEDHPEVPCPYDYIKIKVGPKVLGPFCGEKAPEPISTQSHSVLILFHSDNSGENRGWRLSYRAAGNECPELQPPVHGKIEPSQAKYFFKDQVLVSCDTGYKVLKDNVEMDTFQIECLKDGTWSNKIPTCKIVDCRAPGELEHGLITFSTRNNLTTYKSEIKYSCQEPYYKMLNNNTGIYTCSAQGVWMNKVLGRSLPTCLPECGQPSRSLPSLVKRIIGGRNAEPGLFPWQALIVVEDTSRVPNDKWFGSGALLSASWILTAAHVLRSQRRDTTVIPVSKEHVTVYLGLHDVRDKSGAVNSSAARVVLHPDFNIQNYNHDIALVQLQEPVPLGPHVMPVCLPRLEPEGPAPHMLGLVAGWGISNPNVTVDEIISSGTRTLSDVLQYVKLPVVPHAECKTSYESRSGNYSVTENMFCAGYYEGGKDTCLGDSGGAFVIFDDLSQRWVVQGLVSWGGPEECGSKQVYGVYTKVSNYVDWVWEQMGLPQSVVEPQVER
Assay: saturation binding; DTLacO cells expressing the antibody stained with various concentrations of fluorescent-labeled soluble antigen
From the text: Recombinant antibodies were generated by cloning PCR-amplified V regions into a vector that supported expression of human IgG1 in 293F cells (Yabuki et al., PLoS ONE, 7(4):e36032 (2012)).

Kd: ~31 nM
B1: MASP-3 specific clone M3J5 (antibody, V domains shown)
VH: AVTLDESGGGLQTPGGGLSLVCKASGFTFSSYAMGWMRQAPGKGLEYVAGIRSDGSFTLYATAVKGRATISRDNGQSTVRLQLNNLRAEDTATYFCTRSGNVGDIDAWGHGTEVIVSS
VL: ALTQPASVSANPGETVKITCSGGYSGYAGSYYYGWYQQKAPGSAPVTLIYYNNKRPSDIPSRFSGSLSGSTNTLTITGVRADDEAVYFCGSADNSGAAFGAGTTLTVL
notes: Chicken V regions; recombinant form is chimeric with human IgG1 and lambda constant regions; also called Clone 5; DTLacO clone M3J5
